Laboratory results: the RNAGym collection of RNA variant scans (doi:10.7554/elife.90254)

B1: OR4K15 (parent)
chain: GUUAACGGUCAUAGGCCAUGGAAACUAGGAGCACCAUUUCGCUGCCAGUGAAGAAAUGAACAAAGAAAAUCUGGGCCAGGCAGGCAUCAAAAGAAAUAGUCUUGCGCUCAACCAGAAAGUCUGUAAUCAUUUUAAGGGUA

Variants of: B1
Assay: self-cleavage, relative activity (ratio to wild type); higher = more cleavage; in vitro, sequencing; the parent is a self-cleaving ribozyme

Variant | self-cleavage
C105U A116G | 0.03
A98G G99U | 1.42
U108G U139C | 0
A110G A125G | 0.07
C105A U122A | 0
U103A A126G | 0.34
A98U U131C | 2.12
U108C A111U | 0
U108C A111C | 0.01
U108C A111G | 0.01
A98G U127C | 0.39
C109U C128A | 0.12
A111G A116G | 0.01
A111G A116U | 0.04
U102C G123C | 1.33
U102C G123A | 2.17
G106A G136U | 0.04
U103C A114G | 0.51
U103G U131C | 0.01
A98U U122C | 2
G104A A126U | 0.09
G104A A126G | 0.02
U102A U122A | 1.28
U103C U127C | 0.26

Variant | self-cleavage
U103C U127A | 1.27
U103A A140U | 0.46
C107U A118U | 0.01
C107U A118G | 0
A110G A140U | 0.18
U108A A125G | 0
A110U U127C | 0.44
G106A A125U | 0.05
U103A A135G | 0.73
A110U A117C | 0.29
U108C A126G | 0
U108C A126U | 0.01
U102C U103A | 0.2
A98G G104A | 0.01
C107U U108C | 0.02
A98C A117G | 2.47
U100C U132C | 2.14
U100C C107G | 0.01
U102A G119A | 1.23
U103C U139A | 1.06
U103C U139C | 1.15
U103C A111G | 0.02
G106C A118G | 0
U97C U122C | 1.21

Variant | self-cleavage
C109A A118G | 0.32
G99A C113U | 0.05
U102A U108A | 0.02
U102C A135G | 1.6
G104A U132C | 0.04
A111G A126G | 0.01
U103C U120G | 0.4
U103C U120C | 0.4
G104U A114U | 0.02
A98G A129G | 0.17
A98G A129U | 0.3
G106U U108A | 0.01
U100C U102C | 1.62
U103A U131G | 0.22
U102A U127C | 0.74
U103A U124C | 0.07
U103C A140U | 1.14
A111C U131C | 0
C107A A111G | 0.02
U102C A114U | 0.11
U102C A114G | 0.68
U108C U120C | 0.01
U108C U120A | 0.01
U97C U120A | 0.31

Variant | self-cleavage
G106U U132A | 0.03
G106U A118G | 0.02
U108A G123A | 0.01
C105U A111G | 0.02
U102A A140G | 1.02
U102A A140U | 1.14
U108C A134G | 0.07
U103G G104A | 0.59
A98G A116G | 0.12
C109A U127C | 0.17
A98G A140G | 0.69
C107A A114U | 0
U108A U130G | 0
U102C A134G | 1.14
U102A A116C | 0.21
A110U | 1.34
A110G | 0.13
A110C | 0.31
U100C A126G | 1.86
A98G U124A | 0.07
U103A A111G | 0.01
C101U | 0.41
C101A | 0.21
C107U U130C | 0

Variant | self-cleavage
A98U A111G | 0.01
A110G U130C | 0.09
G99U A129G | 0.13
U103C A118U | 0.3
U100C A114U | 0.16
U100C A114G | 1.34
C105A A134G | 0.05
C109U A135G | 0.38
U108C A118C | 0
U108A U127A | 0.03
U108A U124C | 0.01
U108C A140G | 0.01
U103G G119A | 0.01
U108C A114G | 0.01
U108C A114U | 0.01
U108A A118G | 0
A98G A118G | 0.26
U100C U130C | 2.02
U103A A114G | 0.45
A98G A126G | 0.34
U100C U108C | 0.01
U103C A129U | 0.29
U103A U133C | 0.61
U108C U139C | 0.01

Variant | self-cleavage
C107U A111G | 0
A98G U108C | 0
A111G A129G | 0.01
U102A | 0.74
U102G | 0.58
U102C | 1.82
G106U A114G | 0
U102C U132C | 2.04
U108A A117G | 0.02
U102C C107U | 0.01
G106A A111G | 0.01
G106A A111U | 0
U103A U122C | 0.35
C101A U122C | 0.13
G106A U130C | 0.01
U102A U130C | 0.43
U102A U130A | 0.32
A110U A111G | 0.01
U103A A118C | 0.53
U103G | 0.03
U103C | 0.7
U103A | 0.39
U100C U131C | 2.14
C107A U122C | 0.01

Variant | self-cleavage
U108C U131A | 0.02
U102C A116U | 0.23
U102C A116G | 0.7
A98G U133A | 0.24
A98G U133C | 0.65
U103C U124C | 0.96
G99A U130C | 0.13
U103A A116G | 0.14
U108C U127A | 0.01
U108C U127C | 0.01
U108A A114G | 0.02
U108C A135U | 0.01
U102A G115A | 0.06
G104A A116U | 0
U108C U130G | 0
U108C U130C | 0.01
U100G U108A | 0.02
C109A A117G | 0.59
U102C U133C | 2.27
U102C U133G | 2.02
U103C A125U | 1.45
G99A U131C | 0.42
U100C A110C | 1.12
U100C A110G | 0.32

Variant | self-cleavage
A110G U131C | 0.08
U108G A135G | 0.01
U100A U139C | 0.83
G99A A111G | 0.02
U102C U131C | 2.13
U100C G123U | 2.81
U100C G123A | 2.36
U97G U127C | 0.49
U100C U127C | 1.61
A110G A134G | 0.12
U102A A135U | 0.49
C105G A135G | 0.03
U100C U122C | 1.66
U100C U122A | 2.11
U100C U122G | 2.48
U103G U122C | 0.01
A98G A111G | 0.01
C107G U108A | 0.01
U102A U124C | 0.88
C107A A118U | 0
U108A A116U | 0.02
A111G A125G | 0.01
U100A C113U | 0.11
U108C A116U | 0

Variant | self-cleavage
U108C A116G | 0.01
U100A A134G | 0.37
U97G | 1.77
C107G A118G | 0.01
A111G A114G | 0.02
A111G A114C | 0
A111G A114U | 0
A98G A117G | 0.81
U102A U103A | 0.12
U108A A111G | 0.01
U100C A134U | 2.45
A110G U132C | 0.07
U100C G137A | 2.22
U108C C113A | 0.01
A110G C121G | 0.2
U108C A110U | 0.01
U100C A129U | 1.49
U102G A126G | 0.69
A110G A135U | 0.12
A98G U103C | 0.05
C105U U132C | 0.16
A98U G115A | 0.1
U103C U133C | 1.32
U100C G115U | 0.71

Variant | self-cleavage
U100A U124C | 0.18
U100C A118U | 0.77
U100C A118G | 1.11
U102C A110G | 0.15
U102C A110C | 0.4
G104A A111G | 0.01
U103C U108A | 0.02
C105G A117G | 0.02
U102C A126G | 1.89
U102C A126U | 1.39
U108A A135U | 0.02
U108C G115A | 0
C105U A114G | 0.07
A110C A134G | 0.41
C107U A134G | 0.03
A110G A117G | 0.16
U103C U122C | 0.55
C105A U124A | 0.02
C107U A135G | 0.01
U100G A126G | 1.02
G104U A140G | 0
A98G U102A | 0.15
U102C U108C | 0.01
U102C U108A | 0.01

Variant | self-cleavage
A110G G123A | 0.29
C109A A114G | 0.11
U103A A134U | 0.87
U103A A134G | 0.27
A110G A111U | 0.04
C101U G106A | 0
A110U U132C | 0.71
A110U U132A | 1.8
U100A A129G | 0.23
A110G U122C | 0.09
A110G U122G | 0.26
A110G U122A | 0.11
U102A A114G | 0.43
U103C U132C | 0.85
U100C U120C | 2.65
A98G A135G | 0.83
U102A U131C | 0.62
U100C C109U | 0.89
U100C A140U | 2.24
U100C A140G | 2.28
U103C U130C | 0.57
U100C A116C | 0.97
U100C A116G | 1.32
G99A U102A | 0.1

Variant | self-cleavage
U102A A129U | 0.31
U103A G137A | 0.85
A111G A134G | 0.01
U103A U108A | 0.02
U103C G104A | 0.02
U102G U130A | 0.29
U108C A125G | 0
A110G U127A | 0.15
U102A A111G | 0.03
U102C U130A | 1.61
U108C A117C | 0.06
U108C A117G | 0.01
U100C C105U | 0.33
U97C U130A | 0.78
A110C U122A | 0.24
A98U A118G | 1.83
U102C A129G | 1.74
U102C A111G | 0.01
C109A U122C | 0.28
G106A U127A | 0.01
U100C U139C | 2.29
U100C U139A | 2.28
U108A U131C | 0.01
U102C U120C | 2.34

Variant | self-cleavage
G106A | 0.01
G106U | 0.01
G106C | 0.01
U103G U127C | 0
C101U A118G | 0.02
A111G A118U | 0
A111G A118G | 0.01
A98G A114U | 0.02
C101U U120A | 0.4
A98G A125G | 0.13
G99A U132A | 0.23
U103C A117C | 0.29
U103C A117G | 0.71
C105U A118G | 0.04
A110G U120C | 0.06
A110G U133C | 0.25
C101U U127A | 0.45
A98U U124C | 2.17
C101U U131C | 0.27
U100C | 2.09
U100G | 1.24
U100A | 0.61
G99A A117G | 0.36
A110G U139A | 0.05

Variant | self-cleavage
A98G U122A | 0.57
A98G U122C | 0.34
U108C C128G | 0.01
U108A A129G | 0
A110U A126G | 1.05
U100C A111G | 0.01
A111G A117G | 0.01
U100A U131C | 0.36
U108A A126G | 0.01
G104A U122C | 0.02
C105A | 0.03
C105U | 0.16
C105G | 0.02
G106U U122C | 0
G99A U120C | 0.26
C109U U133C | 0.37
A98G U139G | 0.86
A98G U139C | 0.5
U103C A135U | 1.34
A111G | 0.02
A111C | 0.01
C105A U131C | 0.05
